Experimental data reported in patent US20140274782A1, “AFFINITY REAGENTS AND METHODS FOR DETECTION, PURIFICATION, AND PROTEOMIC ANALYSIS OF METHYLATED PROTEINS” (The Board of Trustees of the Leland Stanford Junior …, priority 2013, published 2014).

Columns and labels:
Test in all cases: ProtoArray methylated with G9a SET domain
[1] = target: AP1S1, G9a-methylated (human) (UniProt P61966)
[2] = target: C12orf23, G9a-methylated (human) (UniProt Q8WUH6)
[3] = target: C12orf60, G9a-methylated (human) (UniProt Q5U649)
[4] = target: CA13, G9a-methylated (human) (UniProt Q8N1Q1)
[5] = target: CD79A, G9a-methylated (human) (UniProt P11912)
[6] = target: CDC2, G9a-methylated (human) (UniProt P06493)
[7] = target: CDK10, G9a-methylated (human) (UniProt Q15131)
[8] = target: CDK5RAP3, G9a-methylated (human) (UniProt Q96JB5)
[9] = target: CDKL5, G9a-methylated (human) (UniProt O76039)
[10] = target: CLDN15, G9a-methylated (human) (UniProt P56746)
[11] = target: CMTM3, G9a-methylated (human) (UniProt Q96MX0)
[12] = target: CNTD1, G9a-methylated (human) (UniProt Q8N815)
[13] = target: CRYZL1, G9a-methylated (human) (UniProt O95825)
[14] = target: CTSZ, G9a-methylated (human) (UniProt Q9UBR2)
[15] = target: CTXN1, G9a-methylated (human) (UniProt P60606)
[16] = target: FTL, G9a-methylated (human) (UniProt P02792)
[17] = target: GAL, G9a-methylated (human) (UniProt P22466)
[18] = target: GFOD1, G9a-methylated (human) (UniProt Q9NXC2)
[19] = target: GGPS1, G9a-methylated (human) (UniProt O95749)
[20] = target: GHRL, G9a-methylated (human) (UniProt Q9UBU3)
[21] = target: HIC2, G9a-methylated (human) (UniProt Q96JB3)
[22] = target: HPCAL4, G9a-methylated (human) (UniProt Q9UM19)
[23] = target: KCTD7, G9a-methylated (human) (UniProt Q96MP8)
[24] = target: KIFC1, G9a-methylated (human) (UniProt Q9BW19)
[25] = target: LPAL2, G9a-methylated (human) (UniProt Q16609)
[26] = target: LTC4S, G9a-methylated (human) (UniProt Q16873)
[27] = target: MAGEH1, G9a-methylated (human) (UniProt Q9H213)
[28] = target: MOBKL3, G9a-methylated (human) (UniProt Q9Y3A3)
[29] = target: MRPL21, G9a-methylated (human) (UniProt Q7Z2W9)
[30] = target: NME7, G9a-methylated (human) (UniProt Q9Y5B8)
[31] = target: PAEP, G9a-methylated (human) (UniProt P09466)
[32] = target: PHF20L1, G9a-methylated (human) (UniProt A8MW92)
[33] = target: PPARG, G9a-methylated (human) (UniProt P37231)
[34] = target: PSMA8, G9a-methylated (human) (UniProt Q8TAA3)
[35] = target: PTCD2, G9a-methylated (human) (UniProt Q8WV60)
[36] = target: RDH11, G9a-methylated (human) (UniProt Q8TC12)
[37] = target: RHBDD1, G9a-methylated (human) (UniProt Q8TEB9)
[38] = target: SCGB2A2, G9a-methylated (human) (UniProt Q13296)
[39] = target: SH3YL1 (clone MGC:12275), G9a-methylated (human) (UniProt Q96HL8)
[40] = target: SMYD3, G9a-methylated (human) (UniProt Q9H7B4)
[41] = target: STK17B, G9a-methylated (human) (UniProt O94768)
[42] = target: TCTA, G9a-methylated (human) (UniProt P57738)
[43] = target: TMED5, G9a-methylated (human) (UniProt Q9Y3A6)
[44] = target: YPEL5, G9a-methylated (human) (UniProt P62699)
[45] = target: ZBP1, G9a-methylated (human) (UniProt Q9H171)
Chain of ZBP1, G9a-methylated (human) (Q9H171 whole entry): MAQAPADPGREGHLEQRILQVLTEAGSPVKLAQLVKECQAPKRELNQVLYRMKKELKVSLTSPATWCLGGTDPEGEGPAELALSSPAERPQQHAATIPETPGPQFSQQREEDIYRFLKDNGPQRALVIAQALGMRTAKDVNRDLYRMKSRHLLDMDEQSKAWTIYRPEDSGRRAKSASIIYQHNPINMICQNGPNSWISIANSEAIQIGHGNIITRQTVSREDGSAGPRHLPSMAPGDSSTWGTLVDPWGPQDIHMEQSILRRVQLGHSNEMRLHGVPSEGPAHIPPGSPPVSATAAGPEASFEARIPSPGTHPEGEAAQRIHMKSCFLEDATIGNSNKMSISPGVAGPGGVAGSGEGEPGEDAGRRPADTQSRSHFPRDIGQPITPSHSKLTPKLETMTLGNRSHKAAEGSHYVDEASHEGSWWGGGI

Chain of GGPS1, G9a-methylated (human) (O95749 whole entry): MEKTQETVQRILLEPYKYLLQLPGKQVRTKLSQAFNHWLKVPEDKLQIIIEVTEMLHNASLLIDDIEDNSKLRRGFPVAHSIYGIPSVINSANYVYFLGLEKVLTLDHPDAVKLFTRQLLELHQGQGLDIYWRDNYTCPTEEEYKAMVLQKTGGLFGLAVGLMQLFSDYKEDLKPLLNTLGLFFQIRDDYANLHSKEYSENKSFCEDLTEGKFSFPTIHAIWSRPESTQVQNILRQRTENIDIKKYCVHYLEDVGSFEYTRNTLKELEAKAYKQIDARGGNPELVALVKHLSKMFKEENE
Chain of CLDN15, G9a-methylated (human) (P56746 whole entry): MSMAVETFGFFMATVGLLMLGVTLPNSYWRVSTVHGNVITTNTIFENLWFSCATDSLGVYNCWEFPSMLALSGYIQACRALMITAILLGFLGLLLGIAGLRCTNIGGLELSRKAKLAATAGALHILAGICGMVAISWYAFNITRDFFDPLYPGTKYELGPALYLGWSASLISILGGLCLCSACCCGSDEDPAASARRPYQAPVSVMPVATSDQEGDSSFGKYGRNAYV
Chain of HIC2, G9a-methylated (human) (Q96JB3 whole entry): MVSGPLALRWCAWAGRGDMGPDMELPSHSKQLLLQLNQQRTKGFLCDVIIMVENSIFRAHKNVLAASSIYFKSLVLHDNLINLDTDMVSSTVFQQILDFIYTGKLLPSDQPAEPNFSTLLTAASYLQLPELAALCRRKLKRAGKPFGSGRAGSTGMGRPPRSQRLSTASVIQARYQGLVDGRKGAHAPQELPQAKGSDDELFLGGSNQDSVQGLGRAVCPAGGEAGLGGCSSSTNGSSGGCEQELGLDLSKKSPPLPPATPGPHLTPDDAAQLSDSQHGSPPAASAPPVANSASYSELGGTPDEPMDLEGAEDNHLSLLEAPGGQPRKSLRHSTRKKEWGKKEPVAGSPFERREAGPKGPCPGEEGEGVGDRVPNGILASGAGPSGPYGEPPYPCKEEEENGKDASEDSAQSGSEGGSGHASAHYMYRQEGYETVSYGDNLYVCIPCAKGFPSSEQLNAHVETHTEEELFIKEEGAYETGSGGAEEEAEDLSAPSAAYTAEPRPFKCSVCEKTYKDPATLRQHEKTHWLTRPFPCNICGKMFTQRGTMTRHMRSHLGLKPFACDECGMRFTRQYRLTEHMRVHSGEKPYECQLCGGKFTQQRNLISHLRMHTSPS
Chain of CTSZ, G9a-methylated (human) (Q9UBR2 24-303 limits assumed): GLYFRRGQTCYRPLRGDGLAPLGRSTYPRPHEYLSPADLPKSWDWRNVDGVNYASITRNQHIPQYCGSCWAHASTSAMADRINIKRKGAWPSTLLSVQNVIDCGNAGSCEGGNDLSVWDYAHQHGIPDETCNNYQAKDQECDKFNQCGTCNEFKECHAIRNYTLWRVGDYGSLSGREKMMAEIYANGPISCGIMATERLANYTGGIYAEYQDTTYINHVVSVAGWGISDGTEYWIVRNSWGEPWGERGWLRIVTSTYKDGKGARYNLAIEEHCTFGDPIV
Chain of RHBDD1, G9a-methylated (human) (Q8TEB9 whole entry): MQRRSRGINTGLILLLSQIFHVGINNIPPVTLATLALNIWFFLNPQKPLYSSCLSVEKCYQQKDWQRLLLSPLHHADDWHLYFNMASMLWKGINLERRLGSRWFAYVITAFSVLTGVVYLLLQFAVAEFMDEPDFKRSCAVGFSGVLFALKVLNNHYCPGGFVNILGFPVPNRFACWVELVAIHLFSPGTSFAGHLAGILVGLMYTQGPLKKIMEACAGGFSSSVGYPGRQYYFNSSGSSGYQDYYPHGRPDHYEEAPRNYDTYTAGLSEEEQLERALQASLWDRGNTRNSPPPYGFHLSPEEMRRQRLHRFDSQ
Chain of CD79A, G9a-methylated (human) (P11912 33-226 limits assumed): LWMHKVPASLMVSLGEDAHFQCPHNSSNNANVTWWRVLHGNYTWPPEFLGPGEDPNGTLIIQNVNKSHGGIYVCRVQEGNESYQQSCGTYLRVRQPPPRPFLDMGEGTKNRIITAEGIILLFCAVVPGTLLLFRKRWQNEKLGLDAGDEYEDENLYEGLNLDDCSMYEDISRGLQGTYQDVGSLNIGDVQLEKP
Chain of CDC2, G9a-methylated (human) (P06493 whole entry): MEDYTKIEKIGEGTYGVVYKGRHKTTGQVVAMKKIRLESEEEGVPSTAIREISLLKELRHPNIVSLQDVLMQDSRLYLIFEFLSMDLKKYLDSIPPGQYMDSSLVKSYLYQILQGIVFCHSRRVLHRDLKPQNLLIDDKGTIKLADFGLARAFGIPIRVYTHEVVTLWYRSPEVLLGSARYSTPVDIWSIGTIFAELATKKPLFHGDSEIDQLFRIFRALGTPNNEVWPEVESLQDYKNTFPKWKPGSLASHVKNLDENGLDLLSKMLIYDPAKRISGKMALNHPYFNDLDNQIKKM
Chain of TCTA, G9a-methylated (human) (P57738 whole entry): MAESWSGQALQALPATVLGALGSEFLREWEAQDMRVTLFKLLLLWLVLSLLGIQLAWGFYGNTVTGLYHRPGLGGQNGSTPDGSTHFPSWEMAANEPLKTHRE
Chain of MOBKL3, G9a-methylated (human) (Q9Y3A3 whole entry): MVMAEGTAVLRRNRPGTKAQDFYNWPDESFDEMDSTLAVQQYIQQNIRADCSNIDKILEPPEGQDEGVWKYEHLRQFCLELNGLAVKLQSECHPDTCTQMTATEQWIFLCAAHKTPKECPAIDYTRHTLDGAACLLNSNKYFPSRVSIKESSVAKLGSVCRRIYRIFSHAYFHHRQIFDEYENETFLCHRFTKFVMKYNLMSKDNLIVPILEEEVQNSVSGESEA
Chain of HPCAL4, G9a-methylated (human) (Q9UM19 whole entry): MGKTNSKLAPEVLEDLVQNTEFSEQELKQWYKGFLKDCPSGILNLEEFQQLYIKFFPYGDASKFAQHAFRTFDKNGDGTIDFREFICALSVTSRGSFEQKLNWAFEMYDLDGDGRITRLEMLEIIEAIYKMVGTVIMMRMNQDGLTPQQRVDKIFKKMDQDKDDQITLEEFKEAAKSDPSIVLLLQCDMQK
Chain of PHF20L1, G9a-methylated (human) (A8MW92 other isoform, or with tags, fused parts or gaps limits assumed): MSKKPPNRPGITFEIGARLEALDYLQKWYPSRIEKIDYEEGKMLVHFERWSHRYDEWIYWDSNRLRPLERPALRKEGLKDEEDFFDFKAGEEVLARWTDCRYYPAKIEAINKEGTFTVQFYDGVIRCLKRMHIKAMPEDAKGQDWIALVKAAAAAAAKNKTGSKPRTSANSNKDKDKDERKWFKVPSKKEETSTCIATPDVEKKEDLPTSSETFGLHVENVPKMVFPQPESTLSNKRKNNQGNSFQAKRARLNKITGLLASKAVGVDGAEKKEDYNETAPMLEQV
Chain of C12orf60, G9a-methylated (human) (Q5U649 whole entry): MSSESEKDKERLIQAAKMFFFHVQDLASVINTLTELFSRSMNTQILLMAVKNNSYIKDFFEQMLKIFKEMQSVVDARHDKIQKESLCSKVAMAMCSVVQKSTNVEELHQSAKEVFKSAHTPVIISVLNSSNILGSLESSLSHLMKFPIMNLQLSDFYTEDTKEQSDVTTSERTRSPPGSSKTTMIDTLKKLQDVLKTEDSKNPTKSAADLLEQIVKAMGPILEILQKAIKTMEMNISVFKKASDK
Chain of CMTM3, G9a-methylated (human) (Q96MX0 whole entry): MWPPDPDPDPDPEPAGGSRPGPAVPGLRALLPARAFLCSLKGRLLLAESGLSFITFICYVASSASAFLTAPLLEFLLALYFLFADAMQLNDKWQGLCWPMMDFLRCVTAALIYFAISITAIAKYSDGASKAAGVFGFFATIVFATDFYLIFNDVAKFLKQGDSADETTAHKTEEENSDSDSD
Chain of CTXN1, G9a-methylated (human) (P60606 whole entry): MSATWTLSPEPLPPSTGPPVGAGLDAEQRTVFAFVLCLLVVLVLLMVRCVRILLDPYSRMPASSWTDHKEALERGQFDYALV
Chain of NME7, G9a-methylated (human) (Q9Y5B8 37-376 limits assumed): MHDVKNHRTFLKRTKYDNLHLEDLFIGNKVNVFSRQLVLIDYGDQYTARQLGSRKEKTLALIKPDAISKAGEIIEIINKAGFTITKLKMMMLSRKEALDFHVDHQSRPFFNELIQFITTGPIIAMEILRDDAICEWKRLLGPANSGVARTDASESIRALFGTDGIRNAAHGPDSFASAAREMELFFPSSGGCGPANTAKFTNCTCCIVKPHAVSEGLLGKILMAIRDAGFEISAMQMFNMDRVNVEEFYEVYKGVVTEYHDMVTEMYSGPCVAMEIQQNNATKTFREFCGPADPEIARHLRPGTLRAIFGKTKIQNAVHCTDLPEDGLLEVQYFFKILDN
Chain of SCGB2A2, G9a-methylated (human) (Q13296 19-93 limits assumed): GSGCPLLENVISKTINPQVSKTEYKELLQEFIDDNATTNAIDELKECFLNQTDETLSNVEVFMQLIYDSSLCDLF
Chain of CRYZL1, G9a-methylated (human) (O95825 whole entry): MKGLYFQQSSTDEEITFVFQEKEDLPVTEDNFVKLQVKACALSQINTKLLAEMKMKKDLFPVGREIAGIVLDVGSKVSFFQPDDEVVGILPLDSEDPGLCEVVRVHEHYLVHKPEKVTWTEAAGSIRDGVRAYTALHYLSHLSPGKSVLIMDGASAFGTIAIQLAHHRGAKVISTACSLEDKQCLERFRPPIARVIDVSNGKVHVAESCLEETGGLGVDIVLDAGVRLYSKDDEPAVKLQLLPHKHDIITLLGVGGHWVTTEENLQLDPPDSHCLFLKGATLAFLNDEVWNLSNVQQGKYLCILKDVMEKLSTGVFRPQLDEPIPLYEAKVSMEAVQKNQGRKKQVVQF

G9a Average SNR [1]: 16.6 | G9a Average SNR [2]: 12.7 | G9a Average SNR [3]: 12.4 | G9a Average SNR [4]: 13 | G9a Average SNR [5]: 13.8 | G9a Average SNR [6]: 25.3 | G9a Average SNR [7]: 13.6 | G9a Average SNR [8]: 13.8 | G9a Average SNR [9]: 19.7 | G9a Average SNR [10]: 25 | G9a Average SNR [11]: 14.1 | G9a Average SNR [12]: 12.7 | G9a Average SNR [13]: 11.2 | G9a Average SNR [14]: 13.6 | G9a Average SNR [15]: 19.7 | G9a Average SNR [16]: 34.2 | G9a Average SNR [17]: 13.1 | G9a Average SNR [18]: 16.4 | G9a Average SNR [19]: 12.3 | G9a Average SNR [20]: 24.5 | G9a Average SNR [21]: 16.7 | G9a Average SNR [22]: 11.5 | G9a Average SNR [23]: 14.7 | G9a Average SNR [24]: 63.2 | G9a Average SNR [25]: 33.3 | G9a Average SNR [26]: 14.1 | G9a Average SNR [27]: 44 | G9a Average SNR [28]: 13.6 | G9a Average SNR [29]: 23.3 | G9a Average SNR [30]: 14.1 | G9a Average SNR [31]: 17.5 | G9a Average SNR [32]: 21.5 | G9a Average SNR [33]: 12.8 | G9a Average SNR [34]: 13.1 | G9a Average SNR [35]: 19.4 | G9a Average SNR [36]: 26.6 | G9a Average SNR [37]: 12.3 | G9a Average SNR [38]: 14.8 | G9a Average SNR [39]: 12.9 | G9a Average SNR [40]: 17.6 | G9a Average SNR [41]: 14.4 | G9a Average SNR [42]: 16.4 | G9a Average SNR [43]: 15.1 | G9a Average SNR [44]: 13.4 | G9a Average SNR [45]: 14.7
Substance: 3× Flag-3×MBT (designed binder)
